Experimental data taken from article PMC12654856, “Exploring the Scope of Functionalized N-Acylneuraminic Acid β-Methyl Glycosides as Inhibitors of Neisseria meningitidis CMP-Sialic Acid Synthetase” (Molecules, 2025).

What was measured:
[1] = tested on: CC(=O)N[C@H]1[C@H]([C@H](O)[C@H](O)CO)OC(O)(C(=O)O)C[C@@H]1O; test: purified protein; conditions: Mg2+ active site; binds after CTP
[2] = tested on: Nc1ccn([C@@H]2O[C@H](COP(=O)(O)OP(=O)(O)OP(=O)(O)O)[C@@H](O)[C@H]2O)c(=O)n1; test: purified protein; conditions: Mg2+ CTP binds prior to Neu5Ac

Substance: NmB CMP-sialic acid synthetase (CSS) (Neisseria meningitidis MC58)
- Km [1]: 37 µM
- Km [2]: 22 µM
